Measurements published in IntAct's records for PubMed 20485341.

B1: Interleukin-1 receptor-associated kinase 4 (Homo sapiens), Q9NWZ3 (parent)
chain: MNKPITPSTYVRCLNVGLIRKLSDFIDPQEGWKKLAVAIKKPSGDDRYNQFHIRRFEALLQTGKSPTSELLFDWGTTNCTVGDLVDLLIQNEFFAPASLLLPDAVPKTANTLPSKEAITVQQKQMPFCDKDRTLMTPVQNLEQSYMPPDSSSPENKSLEVSDTRFHSFSFYELKNVTNNFDERPISVGGNKMGEGGFGVVYKGYVNNTTVAVKKLAAMVDITTEELKQQFDQEIKVMAKCQHENLVELLGFSSDGDDLCLVYVYMPNGSLLDRLSCLDGTPPLSWHMRCKIAQGAANGINFLHENHHIHRDIKSANILLDEAFTAKISDFGLARASEKFAQTVMTSRIVGTTAYMAPEALRGEITPKSDIYSFGVVLLEIITGLPAVDEHREPQLLLDIKEEIEDEEKTIEDYIDKKMNDADSTSVEAMYSVASQCLHEKKNKRPDIKKVQQLLQEMTAS
partner: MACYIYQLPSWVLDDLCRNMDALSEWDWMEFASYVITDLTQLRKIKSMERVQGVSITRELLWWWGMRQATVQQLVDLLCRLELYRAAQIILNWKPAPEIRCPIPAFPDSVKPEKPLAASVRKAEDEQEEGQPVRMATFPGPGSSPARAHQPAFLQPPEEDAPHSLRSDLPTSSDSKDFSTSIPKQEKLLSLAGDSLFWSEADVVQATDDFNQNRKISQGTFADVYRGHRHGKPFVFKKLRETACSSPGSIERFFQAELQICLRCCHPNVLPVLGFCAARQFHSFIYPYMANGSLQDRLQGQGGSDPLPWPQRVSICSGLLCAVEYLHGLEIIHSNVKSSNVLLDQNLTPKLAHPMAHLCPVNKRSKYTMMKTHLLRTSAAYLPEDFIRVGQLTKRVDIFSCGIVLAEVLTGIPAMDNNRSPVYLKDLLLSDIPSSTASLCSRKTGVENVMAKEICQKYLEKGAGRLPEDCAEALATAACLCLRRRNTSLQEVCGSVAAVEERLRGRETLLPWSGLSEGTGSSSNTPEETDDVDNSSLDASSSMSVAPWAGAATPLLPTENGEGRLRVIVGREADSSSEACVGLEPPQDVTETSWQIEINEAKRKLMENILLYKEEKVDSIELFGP
B2: Interleukin-1 receptor-associated kinase 4 (Homo sapiens), Q9NWZ3 (parent)
chain: B1 chain

Variants of: B1
Details: with irak2_human IRAK2, O43187

Variant	effect of a mutation on the interaction
MNKPITPSTYVRCLNVGLIRKLSDDIDPQEGWKKLAVAIKKPSGDDRYNQFHIRRFEALLQTGKSPTSELLFDWGTTNCTVGDLVDLLIQNEFFAPASLLLPDAVPKTANTLPSKEAITVQQKQMPFCDKDRTLMTPVQNLEQSYMPPDSSSPENKSLEVSDTRFHSFSFYELKNVTNNFDERPISVGGNKMGEGGFGVVYKGYVNNTTVAVKKLAAMVDITTEELKQQFDQEIKVMAKCQHENLVELLGFSSDGDDLCLVYVYMPNGSLLDRLSCLDGTPPLSWHMRCKIAQGAANGINFLHENHHIHRDIKSANILLDEAFTAKISDFGLARASEKFAQTVMTSRIVGTTAYMAPEALRGEITPKSDIYSFGVVLLEIITGLPAVDEHREPQLLLDIKEEIEDEEKTIEDYIDKKMNDADSTSVEAMYSVASQCLHEKKNKRPDIKKVQQLLQEMTAS [F25D]	disrupting interaction
MNKPITPSTYVRCLNVGLIRKLSDFIDPQEGWKKLAVAIKKPSGDDRYNKFHIRRFEALLQTGKSPTSELLFDWGTTNCTVGDLVDLLIQNEFFAPASLLLPDAVPKTANTLPSKEAITVQQKQMPFCDKDRTLMTPVQNLEQSYMPPDSSSPENKSLEVSDTRFHSFSFYELKNVTNNFDERPISVGGNKMGEGGFGVVYKGYVNNTTVAVKKLAAMVDITTEELKQQFDQEIKVMAKCQHENLVELLGFSSDGDDLCLVYVYMPNGSLLDRLSCLDGTPPLSWHMRCKIAQGAANGINFLHENHHIHRDIKSANILLDEAFTAKISDFGLARASEKFAQTVMTSRIVGTTAYMAPEALRGEITPKSDIYSFGVVLLEIITGLPAVDEHREPQLLLDIKEEIEDEEKTIEDYIDKKMNDADSTSVEAMYSVASQCLHEKKNKRPDIKKVQQLLQEMTAS [Q50K]	disrupting interaction

Continued, values first:

effect of a mutation on the interaction	Variant
disrupting interaction	MNKPITPSTYVRCLNVGLIRKLSDFIDPQEGWKKLAVAIKKPSGDDRYNQFHIRRFEALLQTGKSPTSELLFDWGTTNCTVGDLVDLLIQNEFFKPASLLLPDAVPKTANTLPSKEAITVQQKQMPFCDKDRTLMTPVQNLEQSYMPPDSSSPENKSLEVSDTRFHSFSFYELKNVTNNFDERPISVGGNKMGEGGFGVVYKGYVNNTTVAVKKLAAMVDITTEELKQQFDQEIKVMAKCQHENLVELLGFSSDGDDLCLVYVYMPNGSLLDRLSCLDGTPPLSWHMRCKIAQGAANGINFLHENHHIHRDIKSANILLDEAFTAKISDFGLARASEKFAQTVMTSRIVGTTAYMAPEALRGEITPKSDIYSFGVVLLEIITGLPAVDEHREPQLLLDIKEEIEDEEKTIEDYIDKKMNDADSTSVEAMYSVASQCLHEKKNKRPDIKKVQQLLQEMTAS [A95K]
disrupting interaction	MNKPITPSTYVRCLNVGLIRKLSDFIDPQEGWKKLAVAIKKPSGDDRYNQFHIDRFEALLQTGKSPTSELLFDWGTTNCTVGDLVDLLIQNEFFAPASLLLPDAVPKTANTLPSKEAITVQQKQMPFCDKDRTLMTPVQNLEQSYMPPDSSSPENKSLEVSDTRFHSFSFYELKNVTNNFDERPISVGGNKMGEGGFGVVYKGYVNNTTVAVKKLAAMVDITTEELKQQFDQEIKVMAKCQHENLVELLGFSSDGDDLCLVYVYMPNGSLLDRLSCLDGTPPLSWHMRCKIAQGAANGINFLHENHHIHRDIKSANILLDEAFTAKISDFGLARASEKFAQTVMTSRIVGTTAYMAPEALRGEITPKSDIYSFGVVLLEIITGLPAVDEHREPQLLLDIKEEIEDEEKTIEDYIDKKMNDADSTSVEAMYSVASQCLHEKKNKRPDIKKVQQLLQEMTAS [R54D]
disrupting interaction	MNKPITPSTYVRCLNVGLIRKLSDFIDPQEGWKKLAVAIKKPSGDDRYNQDHIRRFEALLQTGKSPTSELLFDWGTTNCTVGDLVDLLIQNEFFAPASLLLPDAVPKTANTLPSKEAITVQQKQMPFCDKDRTLMTPVQNLEQSYMPPDSSSPENKSLEVSDTRFHSFSFYELKNVTNNFDERPISVGGNKMGEGGFGVVYKGYVNNTTVAVKKLAAMVDITTEELKQQFDQEIKVMAKCQHENLVELLGFSSDGDDLCLVYVYMPNGSLLDRLSCLDGTPPLSWHMRCKIAQGAANGINFLHENHHIHRDIKSANILLDEAFTAKISDFGLARASEKFAQTVMTSRIVGTTAYMAPEALRGEITPKSDIYSFGVVLLEIITGLPAVDEHREPQLLLDIKEEIEDEEKTIEDYIDKKMNDADSTSVEAMYSVASQCLHEKKNKRPDIKKVQQLLQEMTAS [F51D]

Variants of: B2
Details: with MYD88, Q99836-1
Sequence of MYD88, Q99836-1 (Q99836 whole entry): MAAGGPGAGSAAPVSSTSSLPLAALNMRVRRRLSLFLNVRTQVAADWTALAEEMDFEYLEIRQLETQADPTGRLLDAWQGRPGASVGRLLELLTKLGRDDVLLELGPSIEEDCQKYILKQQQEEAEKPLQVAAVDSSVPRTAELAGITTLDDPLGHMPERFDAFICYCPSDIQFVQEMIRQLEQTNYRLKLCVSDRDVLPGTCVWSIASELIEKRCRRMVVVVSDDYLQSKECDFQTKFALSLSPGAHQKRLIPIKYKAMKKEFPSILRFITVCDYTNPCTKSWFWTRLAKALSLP

Variant	effect of a mutation on the interaction
MNKPITPSTYVRCLNEGLIEKLSDFIDPQEGWKKLAVAIKKPSGDDRYNQFHIRRFEALLQTGKSPTSELLFDWGTTNCTVGDLVDLLIQNEFFAPASLLLPDAVPKTANTLPSKEAITVQQKQMPFCDKDRTLMTPVQNLEQSYMPPDSSSPENKSLEVSDTRFHSFSFYELKNVTNNFDERPISVGGNKMGEGGFGVVYKGYVNNTTVAVKKLAAMVDITTEELKQQFDQEIKVMAKCQHENLVELLGFSSDGDDLCLVYVYMPNGSLLDRLSCLDGTPPLSWHMRCKIAQGAANGINFLHENHHIHRDIKSANILLDEAFTAKISDFGLARASEKFAQTVMTSRIVGTTAYMAPEALRGEITPKSDIYSFGVVLLEIITGLPAVDEHREPQLLLDIKEEIEDEEKTIEDYIDKKMNDADSTSVEAMYSVASQCLHEKKNKRPDIKKVQQLLQEMTAS [V16E;R20E]	disrupting interaction
MNKPITPSTYVACLNVGLIRKLSDFIDPQEGWKKLAVAIKKPSGDDRYNQFHIRRFEALLQTGKSPTSELLFDWGTTNCTVGDLVDLLIQNEFFAPASLLLPDAVPKTANTLPSKEAITVQQKQMPFCDKDRTLMTPVQNLEQSYMPPDSSSPENKSLEVSDTRFHSFSFYELKNVTNNFDERPISVGGNKMGEGGFGVVYKGYVNNTTVAVKKLAAMVDITTEELKQQFDQEIKVMAKCQHENLVELLGFSSDGDDLCLVYVYMPNGSLLDRLSCLDGTPPLSWHMRCKIAQGAANGINFLHENHHIHRDIKSANILLDEAFTAKISDFGLARASEKFAQTVMTSRIVGTTAYMAPEALRGEITPKSDIYSFGVVLLEIITGLPAVDEHREPQLLLDIKEEIEDEEKTIEDYIDKKMNDADSTSVEAMYSVASQCLHEKKNKRPDIKKVQQLLQEMTAS [R12A]	disrupting interaction

The next lines start with the values.

effect of a mutation on the interaction	Variant
disrupting interaction	MNKPITPSTYVRCLNVGLIRKLSDFIDPQEGWKKLAVAIKKPSGDDRYNQFHIRRFEALLQTGKSPTSELLFDWGETNCTVGDLVDLLIQNEFFAPASLLLPDAVPKTANTLPSKEAITVQQKQMPFCDKDRTLMTPVQNLEQSYMPPDSSSPENKSLEVSDTRFHSFSFYELKNVTNNFDERPISVGGNKMGEGGFGVVYKGYVNNTTVAVKKLAAMVDITTEELKQQFDQEIKVMAKCQHENLVELLGFSSDGDDLCLVYVYMPNGSLLDRLSCLDGTPPLSWHMRCKIAQGAANGINFLHENHHIHRDIKSANILLDEAFTAKISDFGLARASEKFAQTVMTSRIVGTTAYMAPEALRGEITPKSDIYSFGVVLLEIITGLPAVDEHREPQLLLDIKEEIEDEEKTIEDYIDKKMNDADSTSVEAMYSVASQCLHEKKNKRPDIKKVQQLLQEMTAS [T76E]
disrupting interaction	MNKPITPSTYVRCLNVGLIRKLSDFIDPQEGWKKLAVAIKKPSGDDRYNQFHIRRFEALLQTGKSPTSELLFDWGTTECTVGDLVDLLIQNEFFAPASLLLPDAVPKTANTLPSKEAITVQQKQMPFCDKDRTLMTPVQNLEQSYMPPDSSSPENKSLEVSDTRFHSFSFYELKNVTNNFDERPISVGGNKMGEGGFGVVYKGYVNNTTVAVKKLAAMVDITTEELKQQFDQEIKVMAKCQHENLVELLGFSSDGDDLCLVYVYMPNGSLLDRLSCLDGTPPLSWHMRCKIAQGAANGINFLHENHHIHRDIKSANILLDEAFTAKISDFGLARASEKFAQTVMTSRIVGTTAYMAPEALRGEITPKSDIYSFGVVLLEIITGLPAVDEHREPQLLLDIKEEIEDEEKTIEDYIDKKMNDADSTSVEAMYSVASQCLHEKKNKRPDIKKVQQLLQEMTAS [N78E]
disrupting interaction	MNKPITPSTYVRCLNVGLIRKLSDFIDPQEGWKKLAVAIKKPSGDDRYNQFHIRRFEALLQTGKSPTSKLLFDWGTTNCTVGDLVDLLIQNEFFAPASLLLPDAVPKTANTLPSKEAITVQQKQMPFCDKDRTLMTPVQNLEQSYMPPDSSSPENKSLEVSDTRFHSFSFYELKNVTNNFDERPISVGGNKMGEGGFGVVYKGYVNNTTVAVKKLAAMVDITTEELKQQFDQEIKVMAKCQHENLVELLGFSSDGDDLCLVYVYMPNGSLLDRLSCLDGTPPLSWHMRCKIAQGAANGINFLHENHHIHRDIKSANILLDEAFTAKISDFGLARASEKFAQTVMTSRIVGTTAYMAPEALRGEITPKSDIYSFGVVLLEIITGLPAVDEHREPQLLLDIKEEIEDEEKTIEDYIDKKMNDADSTSVEAMYSVASQCLHEKKNKRPDIKKVQQLLQEMTAS [E69K]
